Experimental data published in patent publication US20090180995A1 (NATIONAL UNIVERSITY OF SINGAPORE, published 2009).

T1: hemextin B (Hemachatus haemachatus (African …))
T1 construct: also called peak B
T1 chain: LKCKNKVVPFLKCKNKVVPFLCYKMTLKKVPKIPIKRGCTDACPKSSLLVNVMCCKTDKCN

B1: hemextin AB complex (other)
chain 1: LKCKNKLVPFLSKTCPEGKNLCYKMTMLKMPKIPIKRGCTDACPKSSLLVKVVCCNKDKCN
chain 2: T1 chain
B2: hemextin A (other)
chain: B1 chain 1
notes: also called peak A

Tests used:
[1] = target: TF-FVIIa complex (human, UniProt P08709 61-466; P13726 33-295); experiment: cell-based or functional assay
Chain of TF-FVIIa complex (P08709 61-466 limits assumed, chain 1 of 2): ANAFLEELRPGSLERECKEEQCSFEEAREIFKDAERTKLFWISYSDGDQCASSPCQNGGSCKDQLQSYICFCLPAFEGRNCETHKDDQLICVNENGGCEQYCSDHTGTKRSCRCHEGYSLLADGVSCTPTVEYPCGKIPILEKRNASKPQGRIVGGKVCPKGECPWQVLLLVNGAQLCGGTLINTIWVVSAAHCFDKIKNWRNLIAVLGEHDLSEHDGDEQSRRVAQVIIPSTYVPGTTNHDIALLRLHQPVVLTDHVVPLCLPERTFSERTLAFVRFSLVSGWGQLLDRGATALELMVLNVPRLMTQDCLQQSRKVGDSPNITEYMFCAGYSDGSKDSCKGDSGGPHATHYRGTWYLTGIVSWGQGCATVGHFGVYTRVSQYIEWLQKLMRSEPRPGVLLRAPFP
Chain of TF-FVIIa complex (P13726 33-295 limits assumed, chain 2 of 2): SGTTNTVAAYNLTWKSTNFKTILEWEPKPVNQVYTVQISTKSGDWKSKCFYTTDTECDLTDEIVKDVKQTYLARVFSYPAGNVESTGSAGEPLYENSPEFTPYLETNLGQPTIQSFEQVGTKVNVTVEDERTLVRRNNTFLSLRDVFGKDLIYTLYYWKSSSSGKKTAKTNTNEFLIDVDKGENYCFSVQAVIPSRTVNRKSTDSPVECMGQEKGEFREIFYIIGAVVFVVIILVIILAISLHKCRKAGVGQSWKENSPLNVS

[2] = target: plasma kallikrein; experiment: cell-based or functional assay
[3] = target: T1, hemextin B; experiment: ITC in phosphate, MOPS and Tris buffers at pH 7.4

Row | Binder | IC50, inhibition of extrinsic tenase activity (FXa formation) [1] [nM] | IC50, inhibition of plasma kallikrein amidolytic activity [2] [nM] | ΔHbin (binding enthalpy corrected for protonation) [3] [kcal/mol]
1 | B1 | 100 | ~5000 | 
2 | B2 |  |  | -3.64
